The source of these data is PMC4980433 (Molecular Cell, 2016).

Residue numbers refer to the chain shown, from its start. Names may count otherwise.

As usually defined, the Kd is the constant that tells how readily two partners part at equilibrium. A high value points to lower affinity.

Data set [1] concerns the molecule itself. Briefly: ultracentrifugation sedimentation assay; purified SAM domains (25 μM) centrifuged at an average 200,000 x g, 20°C, 1 hr; total, supernatant and pellet on SDS-PAGE with Coomassie staining; polymers partition into the pellet; proteins of Figure 5A affinity purified.
For data set [2], the target named is TNKS SAM Y1073A (human, UniProt O95271 1018-1093, Y1073A^T1). Briefly: ITC. A general note: Isothermal titration calorimetry measures the heat released or taken up as one component is titrated into another.
Data set [3] has as its target T1, TNKS SAM Y1073A, O95271.
T1 chain: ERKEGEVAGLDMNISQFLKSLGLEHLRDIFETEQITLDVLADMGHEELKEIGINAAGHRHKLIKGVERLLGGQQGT
Description: ITC. The conditions noted are these: chain shown with the change; N = 0.72±0.01.

Data set [4] deals with the molecule itself. Description: crystal structure; SAM domain mutants crystallized; head-to-tail (EH-ML) filaments in the crystals; molecular replacement.

B1: TNKS2 SAM domain (867-940), wild type (domain or fragment, human, UniProt Q9H2K2 867-940, looked up)
chain: EKKEVPGVDFSITQFVRNLGLEHLMDIFEREQITLDVLVEMGHKELKEIGINAYGHRHKLIKGVERLISGQQGL
notes: SAM domain of human Tankyrase 2 (TNKS2, ARTD6), residues 867-940; Forms polydisperse polymers (filaments); theoretical MW about 9 kDa; also called TNKS2 WT
Regarding B1, the binding result in data set [1] is “binds”.

B2: TNKS SAM V1056W (domain or fragment)
chain: T1 chain with V39W, A56Y
With B2, the dissociation constant (Kd) in data set [2] was determined as 860 nM. In data set [3], the dissociation constant Kd was 820 nM, the other: ΔH is -6 kcal/mol and the other: ΔS was 7.7 cal/mol/deg.

B3: TNKS SAM D1055R (domain or fragment, human, UniProt O95271 1018-1093, looked up)
chain: T1 chain with D38R, A56Y
notes: SAM domain of human Tankyrase (TNKS), residues 1018-1093, with D1055R; Polymer-breaking mutant used for crystallization (two crystal forms); also called TNKS D1055R^T1 SAM domain
Regarding B3, in data set [4], the binding result is on record as “binds”.
